Laboratory results published in patent US9051358B2, “Nonnatural collagen-like protein and use thereof” (ZHEJIANG UNIVERSITY, priority 2009, dated 2015).

How the values were obtained:
[1] = Half-life of GLK/IFNα fusion proteins in SD rats; assay type: in vivo
Description: The structure characteristics and half-life in SD rats of the different GLK/IFNαs, which was constructed by fusion to different GLK, was compared in Table 5.

2′,5′-OAS = experiment: Serum 2′,5′-OAS activity in rhesus monkeys after subcutaneous administration; assay type: in vivo
Protocol: Rhesus monkeys.(n=15; including female and male; age range: 3-4; weight range: 4.2-4.8 kg), were purchased from Animal Center of Chinese Academy of Military Medicine and divided into five groups (3 in each group). Samples were diluted with PBS, wherein rGLK1164/IFNα was diluted respectively to 0.36, 1.0 and 3.6 pmol/kg, IFNα (positive control) was diluted to 0.36 pmol/kg, and rGLK1164 (blank control) was diluted to 0.36 pmol/kg. The diluted samples were administered to rhesus monkeys subcutaneously and the serum samples were collected at 0, 1, 2, 4, 8, 10, 14 […] after injection respectively. The activity of 2′, 5′-OAS in serum was measured with 2′,5′-OAS radioimmunoassay kit (Eiken Chemical Co., Tokyo, Japan).

erythropoiesis = experiment: Erythropoiesis in normal mice, hemoglobin (Hb) content; assay type: in vivo, BALB/c mice; conditions: weekly subcutaneous administration
Protocol: rEPO/GLK1074 fusion protein was compared with standard rEPO (EPOGEN®, AMGEN Inc.) in erythropoiesis activity in mice. BALB/c mice (male, 6-8 weeks old, 18˜20 g/only) from the Shanghai Institute of animal testing center were used in the experiments. Grouping, injection, and tail vein blood samples collecting were performed according to the following table. Hemoglobin (Hb) content was determined by colorimetric.

Substance: GLK302/IFNα: IFNα fused with GLK302, a repeated sequence of GGSGGS (SEQ ID NO: 16)
- Half-life [1]: 14.4 h

Substance: IFNα [reference compound]
- detectability in vivo (2′,5′-OAS): could hardly be detected 6 days later

Substance: rEPO: standard rEPO (EPOGEN®, AMGEN Inc.) [reference compound]
- erythropoiesis activity, Hb levels (erythropoiesis): significantly lower than rEPO/GLK1074
